# In publication PMC7996396, “Affinity and Structural Analysis of the U1A RNA Recognition Motif with Engineered Methionines to Improve Experimental Phasing”:
# Legend:
# [1] = biological target: TBP6.9 (Homo sapiens (lab-evolved)) (UniProt P09012); assay: ITC; details: ITC: 50 mM Na-HEPES pH 7.5, 50 mM NaCl, 50 mM KCl, 2 mM MgCl2, 5 mM beta-mercaptoethanol, 20 C; protein in syringe, RNA in cell
# [2] = biological target: TBP6.9(F34M/F37M/F77M) 7Se-Met (Homo sapiens (lab-evolved)) (UniProt P09012); assay: ITC; details: ITC: 50 mM Na-HEPES pH 7.5, 50 mM NaCl, 50 mM KCl, 2 mM MgCl2, 5 mM beta-mercaptoethanol, 20 C; protein in syringe, RNA in cell
# Sequence of TBP6.9(F34M/F37M/F77M) 7Se-Met (Homo sapiens (lab-evolved)) (P09012 whole entry, stated change not applied): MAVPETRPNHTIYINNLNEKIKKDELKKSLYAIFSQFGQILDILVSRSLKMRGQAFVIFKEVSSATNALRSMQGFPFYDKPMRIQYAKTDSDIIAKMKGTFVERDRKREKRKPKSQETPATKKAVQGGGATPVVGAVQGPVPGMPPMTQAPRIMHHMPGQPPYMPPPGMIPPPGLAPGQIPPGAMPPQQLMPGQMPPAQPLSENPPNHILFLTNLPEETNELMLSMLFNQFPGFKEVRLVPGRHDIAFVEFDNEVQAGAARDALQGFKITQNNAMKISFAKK
# [3] = biological target: dmU1A (U1A RRM1 Y31H/Q36R) (Homo sapiens, UniProt P09012 1-98, Y31H;Q36R); assay: ITC; ITC: 50 mM Na-HEPES pH 7.5, 50 mM NaCl, 50 mM KCl, 2 mM MgCl2, 5 mM beta-mercaptoethanol, 20 C; protein in syringe, RNA in cell; details: protein: recombinant; tags: N-terminal 6xHis removed with TEV protease; hairpin, loop closed by C65-G76
# Sequence of dmU1A (U1A RRM1 Y31H/Q36R) (P09012 1-98 Y31H/Q36R): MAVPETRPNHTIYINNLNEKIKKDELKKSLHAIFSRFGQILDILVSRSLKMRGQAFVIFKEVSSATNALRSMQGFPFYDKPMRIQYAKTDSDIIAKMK
# dmU1A(F37M/F77M) 7Se-Met = dmU1A(F37M/F77M) 7Se-Met (Homo sapiens, UniProt P09012 1-98, Y31H;Q36R;F37M;F77M); assay: ITC; Se-Met protein; ITC: 50 mM Na-HEPES pH 7.5, 50 mM NaCl, 50 mM KCl, 2 mM MgCl2, 5 mM beta-mercaptoethanol, 20 C; protein in syringe, RNA in cell; details: protein: recombinant; tags: N-terminal 6xHis removed with TEV protease; hairpin, loop closed by C65-G76
# Sequence of dmU1A(F37M/F77M) 7Se-Met (P09012 1-98 Y31H/Q36R/F37M/F77M): as the sequence (P09012 1-98 Y31H/Q36R) above, with F37M, F77M counted along it
# Sequence of TBP6.9 (Homo sapiens (lab-evolved)) (P09012 whole entry, stated change not applied): as the sequence (P09012 whole entry, stated change not applied) above
Molecule,Kd [1],Kd [2],Kd [3],Kd (dmU1A(F37M/F77M) 7Se-Met)
GCAGAUCUGAGCCCGAAAGGAGCUCUCUGC [GNRA-TAR 30-mer],87.8 nM,69.8 nM,–,–
GGAGAUCUGAGCCUGGGAGCUCUCUCC [HIV-1 TAR 27-mer],8.5 nM,13.5 nM,–,–
CGAAUCCAUUGCACUCCGGAUUCG (structured_RNA) [hpII 24-mer (U1 snRNA hairpin II)],–,–,152 ± 7 nM,59.7 ± 11.4 nM
